{"source": "patent US6699869", "about": "(MYRIAD GENETICS, dated 2004)", "assay_in_all_cases": "cell-based or functional assay", "key": {"[1]": {"molecular_target": "Tissue Plasminogen Activator (t-PA)"}, "[2]": {"molecular_target": "human Factor VIIa (FVIIa) and human tissue factor (TF) complex (human, UniProt P08709 61-466; P13726 33-251, limits assumed)"}, "[3]": {"molecular_target": "bovine factor Xa (from Sigma) (bovine, UniProt P00743 41-492, limits assumed)", "sequence (P00743 41-492 limits assumed)": "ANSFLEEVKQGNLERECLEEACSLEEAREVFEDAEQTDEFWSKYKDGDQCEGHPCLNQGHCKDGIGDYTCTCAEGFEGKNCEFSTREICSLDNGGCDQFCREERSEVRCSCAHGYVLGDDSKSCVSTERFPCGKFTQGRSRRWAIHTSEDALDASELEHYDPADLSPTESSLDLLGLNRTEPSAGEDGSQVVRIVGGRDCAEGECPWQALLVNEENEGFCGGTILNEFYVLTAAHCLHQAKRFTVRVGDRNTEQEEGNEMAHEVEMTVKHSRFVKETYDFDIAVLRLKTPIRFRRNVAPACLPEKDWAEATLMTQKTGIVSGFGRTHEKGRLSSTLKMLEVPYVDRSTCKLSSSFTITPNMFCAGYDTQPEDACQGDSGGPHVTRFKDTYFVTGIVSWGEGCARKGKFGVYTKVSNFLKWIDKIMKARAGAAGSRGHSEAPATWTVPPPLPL"}, "Plasmin": {"molecular_target": "Plasmin"}, "[4]": {"molecular_target": "bovine trypsin (from Sigma) (bovine, UniProt P00760 24-246)", "sequence (P00760 24-246)": "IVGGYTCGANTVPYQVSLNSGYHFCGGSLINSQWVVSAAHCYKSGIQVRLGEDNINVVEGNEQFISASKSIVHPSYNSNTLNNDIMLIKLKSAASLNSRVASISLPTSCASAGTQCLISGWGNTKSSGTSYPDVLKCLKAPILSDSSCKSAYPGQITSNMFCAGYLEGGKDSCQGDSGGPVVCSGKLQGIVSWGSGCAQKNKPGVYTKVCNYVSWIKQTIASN"}, "[5]": {"molecular_target": "human urokinase (from Sigma) (human, UniProt P00749 21-431, limits assumed)"}}, "note": "Non-standard residues stand in square brackets, D forms with d. No end group written: not given here. *: point of attachment. CH2Cl = ClC*"}
{"binder": "[dF]-Pro-Arg-CH2Cl", "note": "[(D)FPR-CH2Cl]", "values": [{"measurement": "IC50 (nM), inhibition of chromogenic substrate hydrolysis by the enzyme", "setting": "[1]", "result": 106, "unit": "nM"}, {"measurement": "IC50 (nM), inhibition of chromogenic substrate hydrolysis by the enzyme", "setting": "[2]", "result": 200, "unit": "nM"}, {"measurement": "IC50 (nM), inhibition of chromogenic substrate hydrolysis by the enzyme", "setting": "[3]", "result": 165, "unit": "nM"}, {"measurement": "IC50 (nM), inhibition of chromogenic substrate hydrolysis by the enzyme", "setting": "Plasmin", "result": 699, "unit": "nM"}, {"measurement": "IC50 (nM), inhibition of chromogenic substrate hydrolysis by the enzyme", "setting": "[4]", "result": 212, "unit": "nM"}, {"measurement": "IC50 (nM), inhibition of chromogenic substrate hydrolysis by the enzyme", "setting": "[5]", "result": 508, "unit": "nM"}]}
